假病毒中和活性IC50 data for two molecules are collected here from patent CN114790240A (UNIV ZHENGZHOU; UNIV HENAN AGRICULTURAL, dated 2022).

For experiment [1], the target named is SARS-CoV-2突变株B.1.617.2株假病毒 (刺突蛋白) (SARS-CoV-2). The experiment is described as follows: cell-based or functional assay.
Experiment [2] addresses SARS-CoV-2突变株B.1.1.529株假病毒 (刺突蛋白) (SARS-CoV-2). The experiment is described as follows: cell-based or functional assay.

B1: 单克隆抗体9D4 (antibody, V domains shown)
VH: QVHLQQSGPELVKPGASVKISCKSSGYALTDYYINWVKQRPGQGLEWIGWIFPGNDYTYFNEKFKDKATLTLDKSSRTAYMLLSSLTTEDSAVYFCARYGDGNYVYFDYWGQGTSLTVSS
VL: ETVLIQSPALMAASPGEKVTITCSVSSSISSSNLHWYQQKSGNSPKPWIYGTSNLASGVPVRFSGSGSGTSYSLTISSMEAEDAATYYCQQWSSYPLTFGAGTKLELK
Turning to B1, the 假病毒中和活性IC50 in experiment [1] amounted to 155 ng/mL; in experiment [2], 188 ng/mL.

B2: 单克隆抗体8H9 (antibody, V domains shown)
VH: QIQLVQSGPELKKPGETVKISCKASGYTFTTYGMSWVKQTPGKGLKWMGWINTYSGVPTYADDFKGRFAFSLETSASTASLQINNLKNEDTATYFCARYDPTAPDYAMDYWGQGTSVTVSS
VL: NIVMTQSPKSMSMSVGERVTLSCKASENVGTYVSWYQQKPEQSPKLLIYGASNRYTGVPDRFTGSGSATDFTLTISSVQAEDLADYHCGQSYIYPLTFGAGTNLELK
B2: the 假病毒中和活性IC50 in experiment [1] came to 56.6 ng/mL; in experiment [2], 92.9 ng/mL.
